Laboratory results reported in patent publication US20170081400A1 (CEPHALON, published 2017).

Experiments:
[1] = molecular target: T1, human TL1A extracellular domain with N-terminal HIS and FLAG tag (human, UniProt O95150 72-251); assay: SPR Run 7, antibody on Protein A, TL1A 5 ug/mL, timepoint 44
T1 construct: the whole entry is named; also called TNFSF15
T1 sequence: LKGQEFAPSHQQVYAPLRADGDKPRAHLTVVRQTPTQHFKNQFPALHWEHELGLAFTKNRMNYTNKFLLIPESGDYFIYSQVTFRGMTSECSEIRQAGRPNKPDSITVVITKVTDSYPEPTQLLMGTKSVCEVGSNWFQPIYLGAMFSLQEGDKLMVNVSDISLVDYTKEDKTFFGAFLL
How it was run: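 The capture level was the response change at the end of loading, which varied by run. Antigen response was read before dissociation ended, double-referenced against a reference flow cell and a buffer blank.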

[2] = molecular target: T1, human TL1A extracellular domain with …; assay: SPR Run 7, antibody on Protein A, TL1A 5 ug/mL, timepoint 220
How it was run: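 Surface plasmon resonance on a Biacore T200 was used, with variants spread over several runs. Antibodies were captured via immobilized Protein A, and their capture level was recorded. Sensorgrams were double-referenced, and the antigen response was read near the end of dissociation.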

B1: 320-534 (antibody, human IgG1, name in Kabat numbering, V domains shown)
VH: QVQLVQSGAEVKKPGASVKVSCKASGYTFTSYDINWVRQAPGQGLEWMGWLNPNSDNTGYAQKFQGRVTMTADRSTSTAYMELSSLRSEDTAVYYCAREVPETAAFEYWGQGTLVTVSS
VL: QSVLTQPPSVSGAPGQRVTISCTSSSSDIGAGLGVHWYQQLPGTAPKLLIEGYYNRPSGVPDRFSGSKSGTSASLTITGLLPEDEGDYYCQSYDGTLSALFGGGTKLTVLG
notes: full-length human IgG1, lambda
TL1A Binding Level (Early) [1]: 109 RU
TL1A Binding Level (Late) [2]: 102 RU

B2: 320-545 (antibody, human IgG1, name in Kabat numbering, V domains shown)
VH: QVQLVQSGAEVKKPGASVKVSCKASGYTFTSYDINWVRQAPGQGLEWMGWLNPNSGLTGYAQKFQGRVTMTADRSTSTAYMELSSLRSEDTAVYYCAREVPETAAFEYWGQGTLVTVSS
VL: QSVLTQPPSVSGAPGQRVTISCTSSSSDIGAGLGVHWYQQLPGTAPKLLIEGYYNRPSGVPDRFSGSKSGTSASLTITGLLPEDEGDYYCQSYDGTLSALFGGGTKLTVLG
notes: as for B1
TL1A Binding Level (Early) [1]: 109 RU
TL1A Binding Level (Late) [2]: 100 RU

B3: 320-544 (antibody, human IgG1, name in Kabat numbering, V domains shown)
VH: QVQLVQSGAEVKKPGASVKVSCKASGYTFTSYDINWVRQAPGQGLEWMGWLNPNSGKTGYAQKFQGRVTMTADRSTSTAYMELSSLRSEDTAVYYCAREVPETAAFEYWGQGTLVTVSS
VL: QSVLTQPPSVSGAPGQRVTISCTSSSSDIGAGLGVHWYQQLPGTAPKLLIEGYYNRPSGVPDRFSGSKSGTSASLTITGLLPEDEGDYYCQSYDGTLSALFGGGTKLTVLG
notes: as for B1
TL1A Binding Level (Early) [1]: 120 RU
TL1A Binding Level (Late) [2]: 112 RU

B4: 320-538 (antibody, human IgG1, name in Kabat numbering, V domains shown)
VH: QVQLVQSGAEVKKPGASVKVSCKASGYTFTSYDINWVRQAPGQGLEWMGWLNPNSWNTGYAQKFQGRVTMTADRSTSTAYMELSSLRSEDTAVYYCAREVPETAAFEYWGQGTLVTVSS
VL: QSVLTQPPSVSGAPGQRVTISCTSSSSDIGAGLGVHWYQQLPGTAPKLLIEGYYNRPSGVPDRFSGSKSGTSASLTITGLLPEDEGDYYCQSYDGTLSALFGGGTKLTVLG
notes: as for B1
TL1A Binding Level (Early) [1]: 54 RU
TL1A Binding Level (Late) [2]: 49 RU

B5: 320-535 (antibody, human IgG1, name in Kabat numbering, V domains shown)
VH: QVQLVQSGAEVKKPGASVKVSCKASGYTFTSYDINWVRQAPGQGLEWMGWLNPNSHNTGYAQKFQGRVTMTADRSTSTAYMELSSLRSEDTAVYYCAREVPETAAFEYWGQGTLVTVSS
VL: QSVLTQPPSVSGAPGQRVTISCTSSSSDIGAGLGVHWYQQLPGTAPKLLIEGYYNRPSGVPDRFSGSKSGTSASLTITGLLPEDEGDYYCQSYDGTLSALFGGGTKLTVLG
notes: as for B1
TL1A Binding Level (Early) [1]: 126 RU
TL1A Binding Level (Late) [2]: 115 RU

B6: 320-548 (antibody, human IgG1, name in Kabat numbering, V domains shown)
VH: QVQLVQSGAEVKKPGASVKVSCKASGYTFTSYDINWVRQAPGQGLEWMGWLNPNSGNAGYAQKFQGRVTMTADRSTSTAYMELSSLRSEDTAVYYCAREVPETAAFEYWGQGTLVTVSS
VL: QSVLTQPPSVSGAPGQRVTISCTSSSSDIGAGLGVHWYQQLPGTAPKLLIEGYYNRPSGVPDRFSGSKSGTSASLTITGLLPEDEGDYYCQSYDGTLSALFGGGTKLTVLG
notes: as for B1
TL1A Binding Level (Early) [1]: 74 RU
TL1A Binding Level (Late) [2]: 68 RU

B7: 320-540 (antibody, human IgG1, name in Kabat numbering, V domains shown)
VH: QVQLVQSGAEVKKPGASVKVSCKASGYTFTSYDINWVRQAPGQGLEWMGWLNPNSGSTGYAQKFQGRVTMTADRSTSTAYMELSSLRSEDTAVYYCAREVPETAAFEYWGQGTLVTVSS
VL: QSVLTQPPSVSGAPGQRVTISCTSSSSDIGAGLGVHWYQQLPGTAPKLLIEGYYNRPSGVPDRFSGSKSGTSASLTITGLLPEDEGDYYCQSYDGTLSALFGGGTKLTVLG
notes: as for B1
TL1A Binding Level (Early) [1]: 100 RU
TL1A Binding Level (Late) [2]: 92 RU

B8: 320-537 (antibody, human IgG1, name in Kabat numbering, V domains shown)
VH: QVQLVQSGAEVKKPGASVKVSCKASGYTFTSYDINWVRQAPGQGLEWMGWLNPNSLNTGYAQKFQGRVTMTADRSTSTAYMELSSLRSEDTAVYYCAREVPETAAFEYWGQGTLVTVSS
VL: QSVLTQPPSVSGAPGQRVTISCTSSSSDIGAGLGVHWYQQLPGTAPKLLIEGYYNRPSGVPDRFSGSKSGTSASLTITGLLPEDEGDYYCQSYDGTLSALFGGGTKLTVLG
notes: as for B1
TL1A Binding Level (Early) [1]: 133 RU
TL1A Binding Level (Late) [2]: 123 RU

B9: 320-539 (antibody, human IgG1, name in Kabat numbering, V domains shown)
VH: QVQLVQSGAEVKKPGASVKVSCKASGYTFTSYDINWVRQAPGQGLEWMGWLNPNSGATGYAQKFQGRVTMTADRSTSTAYMELSSLRSEDTAVYYCAREVPETAAFEYWGQGTLVTVSS
VL: QSVLTQPPSVSGAPGQRVTISCTSSSSDIGAGLGVHWYQQLPGTAPKLLIEGYYNRPSGVPDRFSGSKSGTSASLTITGLLPEDEGDYYCQSYDGTLSALFGGGTKLTVLG
notes: as for B1
TL1A Binding Level (Early) [1]: 172 RU
TL1A Binding Level (Late) [2]: 159 RU

B10: 320-542 (antibody, human IgG1, name in Kabat numbering, V domains shown)
VH: QVQLVQSGAEVKKPGASVKVSCKASGYTFTSYDINWVRQAPGQGLEWMGWLNPNSGDTGYAQKFQGRVTMTADRSTSTAYMELSSLRSEDTAVYYCAREVPETAAFEYWGQGTLVTVSS
VL: QSVLTQPPSVSGAPGQRVTISCTSSSSDIGAGLGVHWYQQLPGTAPKLLIEGYYNRPSGVPDRFSGSKSGTSASLTITGLLPEDEGDYYCQSYDGTLSALFGGGTKLTVLG
notes: as for B1
TL1A Binding Level (Early) [1]: 97 RU
TL1A Binding Level (Late) [2]: 86 RU

B11: 320-541 (antibody, human IgG1, name in Kabat numbering, V domains shown)
VH: QVQLVQSGAEVKKPGASVKVSCKASGYTFTSYDINWVRQAPGQGLEWMGWLNPNSGQTGYAQKFQGRVTMTADRSTSTAYMELSSLRSEDTAVYYCAREVPETAAFEYWGQGTLVTVSS
VL: QSVLTQPPSVSGAPGQRVTISCTSSSSDIGAGLGVHWYQQLPGTAPKLLIEGYYNRPSGVPDRFSGSKSGTSASLTITGLLPEDEGDYYCQSYDGTLSALFGGGTKLTVLG
notes: as for B1
TL1A Binding Level (Early) [1]: 94 RU
TL1A Binding Level (Late) [2]: 84 RU

B12: 320-536 (antibody, human IgG1, name in Kabat numbering, V domains shown)
VH: QVQLVQSGAEVKKPGASVKVSCKASGYTFTSYDINWVRQAPGQGLEWMGWLNPNSKNTGYAQKFQGRVTMTADRSTSTAYMELSSLRSEDTAVYYCAREVPETAAFEYWGQGTLVTVSS
VL: QSVLTQPPSVSGAPGQRVTISCTSSSSDIGAGLGVHWYQQLPGTAPKLLIEGYYNRPSGVPDRFSGSKSGTSASLTITGLLPEDEGDYYCQSYDGTLSALFGGGTKLTVLG
notes: as for B1
TL1A Binding Level (Early) [1]: 115 RU
TL1A Binding Level (Late) [2]: 105 RU

B13: 320-546 (antibody, human IgG1, name in Kabat numbering, V domains shown)
VH: QVQLVQSGAEVKKPGASVKVSCKASGYTFTSYDINWVRQAPGQGLEWMGWLNPNSGWTGYAQKFQGRVTMTADRSTSTAYMELSSLRSEDTAVYYCAREVPETAAFEYWGQGTLVTVSS
VL: QSVLTQPPSVSGAPGQRVTISCTSSSSDIGAGLGVHWYQQLPGTAPKLLIEGYYNRPSGVPDRFSGSKSGTSASLTITGLLPEDEGDYYCQSYDGTLSALFGGGTKLTVLG
notes: as for B1
TL1A Binding Level (Early) [1]: 67 RU
TL1A Binding Level (Late) [2]: 61 RU

B14: 320-543 (antibody, human IgG1, name in Kabat numbering, V domains shown)
VH: QVQLVQSGAEVKKPGASVKVSCKASGYTFTSYDINWVRQAPGQGLEWMGWLNPNSGHTGYAQKFQGRVTMTADRSTSTAYMELSSLRSEDTAVYYCAREVPETAAFEYWGQGTLVTVSS
VL: QSVLTQPPSVSGAPGQRVTISCTSSSSDIGAGLGVHWYQQLPGTAPKLLIEGYYNRPSGVPDRFSGSKSGTSASLTITGLLPEDEGDYYCQSYDGTLSALFGGGTKLTVLG
notes: as for B1
TL1A Binding Level (Early) [1]: 138 RU
TL1A Binding Level (Late) [2]: 126 RU
